Laboratory results published in patent US20060160174A1, “Modified l49-sfv exhibiting increased stability and methods of use thereof” (priority 2002, published 2006).
Changes are numbered by the printed parent chain. Numbers in names are those of the source.

Columns and labels:
Recombinant p97 = molecular target: T1, Recombinant p97 (Homo sapiens, UniProt P08582); test: binding affinity by surface plasmon resonance (Biacore 2000); conditions: 25° C., immobilized p97, 1:1 model, error in last digit in parentheses
T1 construct: Soluble p97 (amino acids 20-710 of human p97 precursor); 6xHis; made in house
T1 sequence (P08582 20-710): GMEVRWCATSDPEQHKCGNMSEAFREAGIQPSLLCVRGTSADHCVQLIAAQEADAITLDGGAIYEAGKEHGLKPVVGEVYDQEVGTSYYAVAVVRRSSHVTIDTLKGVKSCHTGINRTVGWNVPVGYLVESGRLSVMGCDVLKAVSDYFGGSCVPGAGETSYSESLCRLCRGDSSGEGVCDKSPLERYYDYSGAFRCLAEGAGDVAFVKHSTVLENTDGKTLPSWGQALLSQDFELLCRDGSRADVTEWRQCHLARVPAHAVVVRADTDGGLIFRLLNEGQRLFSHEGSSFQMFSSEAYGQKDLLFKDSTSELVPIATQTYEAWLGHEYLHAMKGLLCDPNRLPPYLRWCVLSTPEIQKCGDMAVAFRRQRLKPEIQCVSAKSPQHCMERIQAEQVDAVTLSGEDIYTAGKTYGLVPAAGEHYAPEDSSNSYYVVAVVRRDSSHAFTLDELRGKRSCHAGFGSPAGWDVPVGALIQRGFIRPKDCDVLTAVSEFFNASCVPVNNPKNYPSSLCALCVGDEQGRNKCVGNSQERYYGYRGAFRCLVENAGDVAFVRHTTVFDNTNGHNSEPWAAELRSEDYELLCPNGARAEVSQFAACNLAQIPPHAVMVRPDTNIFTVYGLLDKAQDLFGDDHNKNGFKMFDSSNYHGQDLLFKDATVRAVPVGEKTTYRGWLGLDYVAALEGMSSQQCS
Description: The buffer used in the study was PBS, 0.005% P20, 0.2 mg/mi BSA. Antigen was immobilized on one flow cell surface of a CM5 sensor chip and the others were left blank to serve as reference surfaces. For each scFv, triplicates of 0, 0.5, 2.8, 8.3, 25, 75 and 225 nM were injected across the immobilized antigen. The association and dissociation phases were monitored for 1 and 20 minutes, respectively. The antigen surface was regenerated with four 18-second pulses of 2.5 mM NaOH between injections.
The binding affinities of double mutants FP960 and FP965 and triple mutants FP990 and FP999 were compared to the parental molecule by surface plasmon resonance. Recombinant p97 was immobilized on a BIACore CM5 sensor chip and varying concentrations of each scFv fusion protein were injected across the chip in triplicate.

purified p97 antigen = molecular target: T2, purified p97 antigen (Homo sapiens, UniProt P08582); test: size exclusion chromatography (SEC) binding assay, 2:1 p97 antigen to L49-sFv-bL; conditions: purified protein after ion exchange
T2 construct: Soluble p97 (amino acids 20-710 of human p97 precursor); 6xHis; made in house
T2 sequence (P08582 20-710): T1 sequence (P08582 20-710)
From the text: Double mutants FP960 and FP965 and triple mutant FP990 all show improved refolding activity in crude lysates compared to the parental molecule, and therefore, all three mutant molecules were selected for further analysis. Proteins were expressed at the 1L scale in shake flasks as described in Materials and Methods, supra. Inclusion bodies (IBs) were obtained at a typical yield of 25% (±10%) wet IB mass/wet cell mass. Renatured L49-sFv-bL was purified by aminophenylboronate chromatography, dialyzed into 10 mM Na2PO4 and loaded onto Macro-prep HS resin. Fusion proteins were eluted in a stepwise fashion employing 250 mM NaCl. […] Mutants FP965 and FP990 were greater than 95% monomeric as shown by SEC-HPLC. However, FP960 contained only 55% monomer after cation exchange purification, possibly indicating a key role for the lysine residue at position H39 in refolding. The parental molecule, FP95, was present as 2 bands following aminophenylboronate chromatography. After ion-exchange chromatography only the upper of these 2 bands was eluted. A size exclusion chromatography (SEC) binding assay was developed in which a 2:1 ratio of purified p97 antigen to purified L49-sFv-bL was mixed and analyzed by HPLC-SEC (data not shown).

[1] = tested on: H3677 human melanoma xenografts; conditions: fusion protein 1 mg/kg i.v. followed 24 h later by C-Mel 100 mg/kg, q7dx3
[2] = molecular target: T3, soluble p97 (amino acids 20-710 of human p97 precursor) (Homo sapiens, UniProt P08582); test: solid-phase p97 binding assay of crude refolded fusion proteins (refolding efficiency); conditions: crude refolds normalized on β-lactamase activity
T3 construct: Soluble p97 (amino acids 20-710 of human p97 precursor); 6xHis; made in house
T3 sequence (P08582 20-710): T1 sequence (P08582 20-710)
Description: For small scale expression BL21([DE3) (Novagen) were transformed with parental and mutant constructs and single colonies was used to inoculate 100 ml Terrific Broth II (TB) (QBIOGENE). Cells were induced at an OD of 1.0 with 1 mM IPTG (Sigma). Cells were harvested following overnight incubation and inclusion bodies were purified from the cell extracts using B-Per (Novagen) according to the manufacturers instructions. Inclusion body pellets were resuspended in 8 M urea, 2 mM DTT, 50 mM Tris.Cl pH 8.0 at a concentration of 50 mg/ml. Inclusion bodies were refolded overnight in a 50-fold dilution of 2 M urea, 0.3 M L-arginine, 50 mM Tris.Cl pH 8.0, 1 mM reduced glutathione, 0.1 mM oxidized glutathione. Protein was then dialyzed into PBS and fusion protein concentration was determined by measuring β-lactamase activity using colorimetric substrate nitrocefin.
Soluble p97 (amino acids 20-710 of human p97 precursor) was cloned into pSecTag2 (Invitrogen), incorporating an Ig Kappa leader sequence and a 6× his tag, and transfected into CHO cells. Stable transformants were selected and secreted protein was purified from conditioned medium on a metal chelate affinity column. Assays were performed by coating polystyrene 96-well plates with 2 μg/ml soluble p97 in PBS overnight. The plates were blocked by adding 1% bovine serum albumin in PBS for 1 hour at room temperature. Plates were emptied and fresh blocking reagent containing serial dilutions of L49-sFv-bL samples was added. Following 1 hour at room temperature the plates were washed and developed with 0.1 ml of colorimetric β-lactamase substrate nitrocefin solution at 0.1 mM in PBS containing 1% DMSO. Absorbance measurements were read in an ELISA plate reader using a 490 nm filter with 610 m as the reference wavelength.
The unusual residues in the L49 scFv framework were mutated to the most frequently occurring residue for that position in the Kabat database (Chowdhury et al., 1998, J. Mol. Biol. 281, 917-928). […] Binding to p97 was then determined using a solid-phase binding assay as described in Section 6.1.3, supra.

B1: FP999: triple mutant K H39 Q, F H82B S, N H91 Y in reverse bL-L49-sFv orientation (β-lactamase at amino terminus) (protein)
chain: TPVSEKQLAEVVANTITPLMKAQSVPGMAVAVIYQGKPHYYTFGKADIAANKPVTPQTLFELGSISKTFTGVLGGDAIARGEISLDDAVTRYWPQLTGKQWQGIRMLDLATYTAGGLPLQVPDEVTDNASLLRFYQNWQPQWKPGTTRLYANASIGLFGALAVKPSGMPYEQAMTTRVLKPLKLDHTWINVPKAEEAHYAWGYRDGKAVRVSPGMLDAQAYGVKTNVQDMANWVMANMAPENVADASLKQGIALAQSRYWRIGSMYQGLGWEMLNWPVEANTVVETSFGNVALAPLPVAEVNPPAPPVKASWVHKTGSTGGFGSYVAFIPEKQIGIVMLANTSYPNPARVEAAYHILEALQMHGTKLMEVQLQESGPSLVKPSQTLSLTCSVTGDSITSGYWNWIRQFPGNKLEYMGYISDSGITYYNPSLKSRISITRDTSKNQYYLQLNSVTAEDTATYYCARRTLATYYAMDYWGQGTSVTVSSGSTSGSGKPGSGEGSTKGDFVMTQTPLSLPVSLGDQASISCRASQSLVHSNGNTYLHWYLQKPGQSPKLLIYRVSNRFSGVPDRFSGSGSGTDFTLKISRVEAEDLGVYFCSQSTHVPPTFGGGTKLEIKR
With B1 the ka (Recombinant p97) was 3.373(3) × 10^5 M^−1 s^−1, the kd (Recombinant p97) was 5.755(7) × 10^−4 s^−1 and the “antigen binding in SEC assay” value (purified p97 antigen) was “bound completely to antigen”. The tumor response [1] was “significant tumor regression”.

B2: FP930: L49-sFv-bL with mutation K H39 Q (protein)
scFv: MEVQLQESGPSLVKPSQTLSLTCSVTGDSITSGYWNWIRQFPGNKLEYMGYISDSGITYYNPSLKSRISITRDTSKNQYYLQLNFVTAEDTATYNCARRTLATYYAMDYWGQGTSVTVSSGSTSGSGKPGSGEGSTKGDFVMTQTPLSLPVSLGDQASISCRASQSLVHSNGNTYLHWYLQKPGQSPKLLIYRVSNRFSGVPDRFSGSGSGTDFTLKISRVEAEDLGVYFCSQSTHVPPTFGGGTKLEIKRTPVSEKQLAEVVANTITPLMKAQSVPGMAVAVIYQGKPHYYTFGKADIAANKPVTPQTLFELGSISKTFTGVLGGDAIARGEISLDDAVTRYWPQLTGKQWQGIRMLDLATYTAGGLPLQVPDEVTDNASLLRFYQNWQPQWKPGTTRLYANASIGLFGALAVKPSGMPYEQAMTTRVLKPLKLDHTWINVPKAEEAHYAWGYRDGKAVRVSPGMLDAQAYGVKTNVQDMANWVMANMAPENVADASLKQGIALAQSRYWRIGSMYQGLGWEMLNWPVEANTVVETSFGNVALAPLPVAEVNPPAPPVKASWVHKTGSTGGFGSYVAFIPEKQIGIVMLANTSYPNPARVEAAYHILEALQ
B2 was tested, and the “antigen binding of refolded mutant compared to parental L49-sFv-bL (FP95)” value (shortened to “antigen binding of refolded mutant”) [2] was “significant increases in antigen binding”.

B3: FP945: L49-sFv-bL with mutation F H82B S (protein)
scFv: B2 scFv with Q40K, F85S
B3 was tested, and the “antigen binding of refolded mutant” value [2] was “significant increases in antigen binding”.

B4: FP990: L49-sFv-bL triple mutant K H39 Q, F H82B S, N H91 Y (protein)
scFv: B2 scFv with F85S, N95Y
B4 was tested, and the ka (Recombinant p97) was 4.476(1) × 10^5 M^−1 s^−1, the kd (Recombinant p97) was 7.819(3) × 10^−4 s^−1 and the tumor response [1] was “significant tumor regression”.

B5: FP965: L49-sFv-bL double mutant K H39 Q, N H91 Y (protein)
scFv: B2 scFv with N95Y
In the case of B5, the ka (Recombinant p97) is reported as 4.000(6) × 10^5 M^−1 s^−1 and the kd (Recombinant p97) is reported as 7.65(1) × 10^−4 s^−1.

B6: FP95: parental (wt) L49-sFv-bL fusion protein refolded from E. coli inclusion bodies (protein)
scFv: B2 scFv with Q40K
For B6, the ka (Recombinant p97) was 3.038(2) × 10^5 M^−1 s^−1, the kd (Recombinant p97) was 7.004(5) × 10^−4 s^−1 and the “antigen binding in SEC assay” value (purified p97 antigen) was “bound antigen completely”.

B7: FP950: L49-sFv-bL with mutation N H91 Y (protein)
scFv: B2 scFv with Q40K, N95Y
For B7, the “antigen binding of refolded mutant” value [2] was “significant increases in antigen binding”.

B8: FP960: L49-sFv-bL double mutant F H82B S, N H91 Y (protein)
scFv: B2 scFv with Q40K, F85S, N95Y
With B8 the ka (Recombinant p97) was 3.640(4) × 10^5 M^−1 s^−1 and the kd (Recombinant p97) was 6.383(7) × 10^−4 s^−1.
